Experimental data taken from patent US20090124553A1, “Suppression of inflammation associated with transplantation using an epsilon PKC inhibitor” (priority 2007, published 2009).

Experiments:
εPKC = biological target: T1, εPKC (Rattus norvegicus, UniProt P09216); settings: from cited literature; cited from earlier work
T1 sequence (P09216 1-737): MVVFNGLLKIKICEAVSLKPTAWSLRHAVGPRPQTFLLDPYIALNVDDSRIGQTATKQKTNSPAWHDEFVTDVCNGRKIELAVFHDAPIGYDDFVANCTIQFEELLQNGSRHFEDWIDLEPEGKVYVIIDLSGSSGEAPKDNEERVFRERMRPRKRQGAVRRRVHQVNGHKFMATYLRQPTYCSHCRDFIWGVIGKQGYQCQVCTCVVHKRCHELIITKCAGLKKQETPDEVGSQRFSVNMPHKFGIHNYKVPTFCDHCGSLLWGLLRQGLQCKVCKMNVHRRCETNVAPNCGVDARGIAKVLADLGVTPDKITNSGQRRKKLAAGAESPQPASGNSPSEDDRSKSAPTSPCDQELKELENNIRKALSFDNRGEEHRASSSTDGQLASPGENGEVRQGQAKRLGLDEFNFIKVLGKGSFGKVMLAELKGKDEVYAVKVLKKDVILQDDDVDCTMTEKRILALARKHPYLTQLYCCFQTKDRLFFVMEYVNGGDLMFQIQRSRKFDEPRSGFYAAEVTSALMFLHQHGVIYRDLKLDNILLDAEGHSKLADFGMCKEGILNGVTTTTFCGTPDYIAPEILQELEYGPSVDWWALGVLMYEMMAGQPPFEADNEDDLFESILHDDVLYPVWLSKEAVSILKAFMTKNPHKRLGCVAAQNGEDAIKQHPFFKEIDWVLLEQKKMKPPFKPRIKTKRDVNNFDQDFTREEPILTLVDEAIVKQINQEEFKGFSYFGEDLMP

cardiac allografts = assay: Heterotopic cardiac allograft transplantation in mice: graft beating score, toxicity, body weight; format: in vivo
Description: In studies performed in support of the present methods, hearts of FVB mice (H-2^q) were transplanted into C57BL/6 mice (H-2^b) to provide an animal model for allograft transplantation. Following transplantation, an isozyme-specific εPKC inhibitor was administered to the transplant recipients. The particular inhibitor was TAT47-57-εV1-2 (i.e., εV1-2), which is described herein.
The εPKC-specific inhibitor, εV1-2, or the carrier/control peptide, TAT, was administered to the recipient animals using osmotic pumps to provide continuous treatment from day 3 following allograft transplantation until sacrifice on day 30. All animals were given 20 mg/kg/day of cyclosporine A (CyA) to ensure survival.
Male […] (H-2^q) and C57BL/6J (H-2^b) mice, 6-8 weeks old, were purchased from Jackson Laboratory (Bar Harbor, Me.) and housed at the animal facility at Stanford University Medical Center (Stanford, Calif.). The εVB mice were used as allograft donors and the C57BL/6J mice were used as recipients. […]
Allograft recipient mice were monitored daily. Graft viability was assessed by direct abdominal palpation of the heterotopically transplanted hearts and expressed as beating score, assessed by the Stanford cardiac surgery lab graft scoring system (Tanaka, M. et al. (2004) Circulation 110:II194-9).

| Compound | function on εPKC (agonist / antagonist) (εPKC) | toxic effects (cardiac allografts; allograft recipient mice treated day 3-30, compared to TAT-treated group) | body weight (cardiac allografts; allograft recipient mice, Mean±SEM) |
| --- | --- | --- | --- |
| HNAPIGYD | functioned as a εPKC antatgonist/inhibitor |  |  |
| CC(C)C[C@H](NC(=O)[C@H](CO)NC(=O)[C@@H](NC(=O)[C@H](C)NC(=O)[C@H](CCC(=O)O)NC(=O)[C@@H](N)CSSC[C@H](N)C(=O)N[C@@H](Cc1ccc(O)cc1)C(=O)NCC(=O)N[C@@H](CCCNC(=N)N)C(=O)N[C@@H](CCCCN)C(=O)N[C@@H](CCCCN)C(=O)N[C@@H](CCCNC(=N)N)C(=O)N[C@@H](CCCNC(=N)N)C(=O)N[C@@H](CCC(N)=O)C(=O)N[C@@H](CCCNC(=N)N)C(=O)N[C@@H](CCCNC(=N)N)C(=O)N[C@@H](CCCNC(=N)N)C(=O)O)C(C)C)C(=O)N[C@@H](CCCCN)C(=O)N1CCC[C@H]1C(=O)N[C@H](C(=O)O)[C@@H](C)O [εV1-2] |  | did not demonstrate toxic effects | 21.7 ± 0.9 g |
| ψεRACK: peptide HDAPIGYD (εPKC 85-92; SEQ ID NO: 9), εPKC-selective agonist | functioned as a εPKC-selective agonist |  |  |
